Legend:
cortical tubules = assay: BrdU uptake: percent of cortical tubules with BrdU-positive cell; type: in vivo, mice; details: NGAL pretreated, 24 hours after insult; ischemic 1.9%, sham 3.7%
Excerpt: (§1) After 6 or 24 hr of reperfusion, heparinized plasma, urine and kidney samples were obtained to measure NGAL (polyclonal 1:500), Heme oxygenase-1 (Stressgen, 1:2000), E-cadherin (BD Transduction Labs, 1:2000), N-cadherin (BD Transduction Labs, 1:3000) and GAPDH (Chemicon International, 1:3000) using immunoblots. Plasma was also used for creatinine and blood urea nitrogen colorimetric assays. Sagittal sections of the kidney were fixed in 4% formalin, or were snap frozen for mRNA and protein analysis. Paraffin-embedded sections (5 μm) were stained with hematoxylin-eosin or by an in situ kit (Fluorescein-TUNEL, Roche) for apoptotic nuclei or for total nuclei (Toprol, Molecular Probes). For cell proliferation analysis, BrdU was injected into the peritoneum 1 hour before sacrifice, and cryostat sections were stained with anti-BrdU (Roche) according to the manufacturer.

[1] = test system: ischemia-reperfusion injury in mice; assay: Histopathology scoring of tubule damage (dilatation, casts, necrosis) after ischemia-reperfusion; type: in vivo; details: NGAL before, during or after ischemia, 24 h reflow, vs saline controls
Experimental: Purified endotoxin-free NGAL was administered either intravenously into mice via tail vein injections, subcutaneously, or intraperitoneally. In preliminary studies, animals were treated with three different concentrations of NGAL (50, 100, or 250 μg of a 250 μg/100 solution), subjected to 30 minutes of bilateral renal artery clamping one hour later, and examined after 24 hours of reflow. […] All subsequent studies as reported here were carried out using the 250 μg dose of NGAL. […]
Kidney sections of 4 microns were stained with hematoxylin-eosin and scored for histopathologic damage to the tubules in a blinded fashion, as previously described by Yokota N. et al., Am J Physiol Renal Physiol 285: F319-F325, 2003 and Kjeldsen L. et al., Biochim Biophys Acta 1482: 272-283, 2000. Each parameter was assessed in five high power fields (40×) in the inner cortex and outer medullary regions (where the tubular damage was most evident), and an average determined for each section. […] Each parameter was scored on a scale of 0 to 4, ranging from none (O), mild (1), moderate (2), severe (3), to very severe/extensive (4).

endogenous NGAL = assay: Endogenous NGAL expression after exogenous NGAL (real time PCR, immunoblot); type: in vivo, mice; design: reduction of the increase in endogenous NGAL RNA / reduction of endogenous NGAL protein in the kidney: dose or concentration left out as unconfirmed
Excerpt: as §1
Total RNA was extracted from mouse kidneys using RNeasy mini kit (Qiagen) with on-column DNase digestion according to the manufacturer's instructions. The cDNA template was synthesized using Omniscript Reverse Transcriptase and oligo-dT primer (Qiagen). The PCR reaction was carried out using iQ SYBR green super mix and MyiQ single-color real-time PCR detection system (Biorad) with incubation times of 2 min at 95° C., followed by 40 cycles of 95° C./30 s and 60° C./30 s. Specificity of the amplification was checked by melting curve analysis and by agarose gel electrophoresis. Primer sequences for mouse NGAL mRNA (Genbank NM_008491) were […] (forward primer, positions 93-112) and […] (reverse, 576-557). Sequences for mouse β-actin mRNA (Genbank X03672) were […] (forward, 415-434) and […] (reverse, 696-677). Each plate included a dilution series of standard sample, which was used to determine mRNA quantities. The NGAL mRNA content was normalized by β-actin mRNA.

B1: NGAL: Purified endotoxin-free recombinant NGAL expressed as GST fusion protein in bacteria, thrombin cleaved (protein, UniProt P80188 21-198, looked up)
Neutrophil …: QDSTSDLIPAPPLSKVPLQQNFQDNQFQGKWYVVGLAGNAILREDKDPQKMYATIYELKEDKSYNVTSVLFRKKKCDYWIRTFVPGCQPGEFTLGNIKSYPGLTSYLVRVVSTNYNQHAMVFFKKVSQNREYFKITLYGRTKELTSELKENFIRFSKSLGLPENHIVFPVPIDQCIDG
percent of cortical tubules with at least one BrDU-positive tubular cell (cortical tubules): 3.9%±0.5
histopathologic score (dilatation, casts, cell necrosis; scale 0 to 4) [1]: significantly improved score
reduction of the increase in endogenous NGAL RNA (endogenous NGAL; 24 hours of reperfusion, real time PCR): 72%±16
endogenous NGAL protein in the kidney (endogenous NGAL; NGAL-treated ischemia, ischemia 73±7): 29 ± 7 µg/g
reduction of endogenous NGAL protein in the kidney (endogenous NGAL; immunoblot): 2.5 fold

From US8247376B2, “NGAL for reduction and amelioration of ischemic and nephrotoxic injuries” (The Trustees of Columbia University, priority 2004, dated 2012)
